From US9902758B2, “Three-helix bundle protein and use thereof” (Samsung Electronics Co., Ltd., priority 2015, dated 2018)

T1: HDMX NTD (the region from 1st to 132nd amino acids of NP_001191100.1) (Homo sapiens, UniProt O15151)
T1 construct: the region from 1st to 132nd amino acids of NP_001191100.1
T1 sequence (O15151 1-132 isoform O15151-5): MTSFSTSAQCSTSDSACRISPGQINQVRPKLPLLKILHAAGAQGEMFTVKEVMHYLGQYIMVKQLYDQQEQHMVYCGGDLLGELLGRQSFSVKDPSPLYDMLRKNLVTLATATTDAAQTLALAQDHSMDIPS

B1: M11: modified three-helix bundle protein, a3D variant, SEQ ID NO: 7 (protein)
chain: MGSWAEFSQRLFAIYWRLLALGGSEAELAAFEKEIAAFESELQAYKGKGNPEVEALRKEAAAIRDELQAYRHN
modifications: Synthetic M11
B2: M25: modified three-helix bundle protein, a3D variant, SEQ ID NO: 16 (protein)
chain: MGSWFEFAWRLLEIKTRLQALGGSEAELAAFEKEIAAFESELQAYKGKGNPEVEALRFEAYWIRLELQAYRHN
modifications: Synthetic M25

Legend:
[1] = related art statement; cited from earlier work
[2] = tested on: SJSA-1 (p53+/+) osteosarcoma cell line; experiment: Cell cycle arrest in SJSA-1 cells (EdU / Hoescht 33342 imaging); type: cell-based; details: 10 uM, 24 hours, compared to control (Mock), FIG. 7
Method: In this example, it was examined if the modified three-helix bundle proteins prepared in Example 3 can induce G1 and G2/M phase cell cycle arrest in SJSA-1 (p53+/+; ATCC), which is an osteosarcoma cell line expressing wild-type p53.
In particular, SJSA1 cells were treated with the modified three-helix bundle protein M11 or M25 at the concentration of 10 uM for 24 hours, and stained with EdU (Edu staining kit, Life Technology Inc.) and Hoescht 33342 (Life Technology Inc.). Among the cells, at least 1000 cells were analyzed by imaging with incell analyzer 6000 (Ge Healthcare) and incell communicator (GE Healthcare). For comparison, the same experiment using Nutlin 3a (Sigma) at the concentration of 10 uM was performed as a positive control.
The imaging results were analyzed by measuring the intensities of EdU (S phase indicator) and Hoescht33342 (DNA content indicator) at single cell level, and determining each population by measuring intensity of Hoescht33342 (DNA content indicator) and EdU (S phase indicator) at single cell level, thereby measuring ratio of cells at each cell cycle phase. The obtained population of each cell cycle phase was shown in FIG. 6, and the S phase measured by EdU uptake amount (EdU intensity) was shown in FIG. 7. […] G2/M is considered as a course progressing to G1 phase.

[3] = biological target: T2, full-length HDM2 (NP 002383.2) (Homo sapiens, UniProt Q00987); experiment: ELISA binding strength to full-length HDM2; details: absorbance at 450 nm, GST-fused protein 0-5.5 uM, versus GST only (negative control) and GST-p53LZ2 (positive control), FIG. 4
T2 construct: full-length HDM2 (NP 002383.2)
T2 sequence (Q00987 1-497 isoform Q00987-11): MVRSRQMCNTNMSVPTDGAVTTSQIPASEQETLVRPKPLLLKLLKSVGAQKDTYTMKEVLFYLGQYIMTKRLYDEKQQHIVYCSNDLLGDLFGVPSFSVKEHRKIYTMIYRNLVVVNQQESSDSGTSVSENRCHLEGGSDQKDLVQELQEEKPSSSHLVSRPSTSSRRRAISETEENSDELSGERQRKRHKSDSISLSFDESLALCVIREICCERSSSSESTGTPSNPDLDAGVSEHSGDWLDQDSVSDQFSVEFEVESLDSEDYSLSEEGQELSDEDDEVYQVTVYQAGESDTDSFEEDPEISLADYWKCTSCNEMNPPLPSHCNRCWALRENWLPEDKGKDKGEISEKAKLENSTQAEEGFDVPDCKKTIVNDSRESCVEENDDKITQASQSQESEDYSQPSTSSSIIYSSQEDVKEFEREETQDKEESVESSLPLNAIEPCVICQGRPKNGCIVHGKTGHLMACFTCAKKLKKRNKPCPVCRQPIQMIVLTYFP
Method: (§1) The binding strength of the modified three-helix bundle proteins prepared in Example 1 was examined by ELISA.
(§2) In particular, each of full-length HDM2 (NP 002383.2), HDM2 N-terminal domain (NTD; the region from 1st to 125th amino acids of NP 002383.2), full-length HDMX (NP_001191100.1), and HDMX NTD (the region from 1st to 132nd amino acids of NP_001191100.1) was diluted to the concentration of 20 μg/ml with coating buffer (pH 9.6; 0.05M carbonate-bicarbonate buffer, pH9.6; Sigma-Aldrich), and coated on 96 well (Nunc, Maxisorp). The well was incubated overnight at 4° C. Thereafter, bindings between other proteins were blocked with 300 ul of 3% skim milk w/PBS-T (at room temperature for 3 hours). The 96 well plate was washed with 200 uL of PBS-T and treated with GST-M11 (SEQ ID NO: 7) or GST-M25 (SEQ ID NO: 16) at a concentration of 0, 0.5, 1, 1.5, 2, 2.5, 3, 3.5, 4, 4.5, 5, or 5.5 uM (micromole). The GST protein was produced from GST cds included in pGEX-4T3 vector purchased from GE healthcare.
(§3) One hour after, the plate was washed with 300 uL of PBS-T, and treated with 100 uL of HRP conjugated-anti-GST antibody (Abcam, 1:2000). […] Thereafter, absorbance at 450 nm was measured using microwell reader (Molecular Device, 340PC384). […]

[4] = biological target: T3, HDM2 N-terminal domain (NTD; the region from 1st to 125th amino acids of NP 002383.2) (Homo sapiens, UniProt Q00987); experiment: ELISA binding strength to HDM2 NTD; details: absorbance at 450 nm, GST-fused protein 0-5.5 uM, versus GST only (negative control) and GST-p53LZ2 (positive control), FIG. 5
T3 construct: the region from 1st to 125th amino acids of NP 002383.2
T3 sequence (Q00987 1-125 isoform Q00987-11): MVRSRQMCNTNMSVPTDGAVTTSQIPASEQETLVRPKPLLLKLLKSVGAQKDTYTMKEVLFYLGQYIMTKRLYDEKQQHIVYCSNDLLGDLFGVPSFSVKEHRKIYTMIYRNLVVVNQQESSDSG
Method: as §1, §2, §3

[5] = tested on: SJSA-1 (p53+/+) osteosarcoma cell line; experiment: Cancer cell proliferation inhibition in SJSA-1 cells (CellTiter-Glo cell viability); type: cell-based; details: 5 days, TAT-coupled protein, FIG. 8; for cancer cell death rate: 10.00 uM
Method: The effects of the modified three-helix bundle proteins prepared in Example 1 to inhibit cancer cell proliferation was examined in SJSA-1 (p53+/+; ATCC), which is an osteosarcoma cell line expressing wild-type p53.
The cells were cultured in CO2 incubator under the conditions of 37° C., and CO2 5%, for 5 days. 80 uL of CellTiter-Glo reagent (Promega) was added to each well, and luminescence was measured with EnVision Multilabel Reader (PerkinElmer), to measure cell viability. The cell viability is indicated by a relative value to that of non-treated cells (“1.0”).

[6] = biological target: T1, HDMX NTD (the region from 1st to 132nd amino acids of NP_001191100.1); experiment: ELISA binding strength to HDMX NTD; details: absorbance at 450 nm, GST-fused protein 0-5.5 uM, versus GST only (negative control) and GST-p53LZ2 (positive control), FIG. 3
Method: as §1, §2, §3

Row | Molecule | cytotoxicity [1] | level (cell number) of cells at S phase measured by EdU intensity [2] | binding strength to full-length HDM2 [3] | binding strength to HDM2 NTD [4] | cancer cell death rate [5] | cancer cell proliferation inhibition effect compared with positive control [5] | binding strength to HDMX NTD [6]
1 | COc1ccc(C2=N[C@@H](c3ccc(Cl)cc3)[C@@H](c3ccc(Cl)cc3)N2C(=O)N2CCNC(=O)C2)c(OC(C)C)c1 [Nutlin-3] | high level of cytotoxicity | – | – | – | – | – | –
2 | COc1ccc(C2=N[C@@H](c3ccc(Cl)cc3)[C@@H](c3ccc(Cl)cc3)N2C(=O)N2CCNC(=O)C2)c(OC(C)C)c1 [nutlin3a, Nutlin 3a, reference compound] | – | decrease in level (cell number) of cells at S phase compared to that of control (Mock) | – | – | – | – | –
3 | B1 | – | decrease in level (cell number) of cells at S phase compared to that of control (Mock) | considerably higher than that of the negative control, and similar to or higher than that of the positive control | considerably higher than that of the negative control, and similar to or higher than that of the positive control | at least 90% | equal to that of Nutlin-3 | considerably higher than that of the negative control, and similar to or higher than that of the positive control
4 | B2 | – | decrease in level (cell number) of cells at S phase compared to that of control (Mock) | considerably higher than that of the negative control, and similar to or higher than that of the positive control | considerably higher than that of the negative control, and similar to or higher than that of the positive control | at least 80% | equal to that of Nutlin-3 | considerably higher than that of the negative control, and similar to or higher than that of the positive control
